Data as given in US20240101645A1 (HENRY M JACKSON FOUNDATION FOR THE ADVANCEMENT OF MILITARY …, published 2024).

Legend:
[1] = target: T1, MERS-CoV spike antigens (bead panel) (MERS-CoV, UniProt K9N5Q8 18-1296); assay: multiplex bead assay
T1 sequence: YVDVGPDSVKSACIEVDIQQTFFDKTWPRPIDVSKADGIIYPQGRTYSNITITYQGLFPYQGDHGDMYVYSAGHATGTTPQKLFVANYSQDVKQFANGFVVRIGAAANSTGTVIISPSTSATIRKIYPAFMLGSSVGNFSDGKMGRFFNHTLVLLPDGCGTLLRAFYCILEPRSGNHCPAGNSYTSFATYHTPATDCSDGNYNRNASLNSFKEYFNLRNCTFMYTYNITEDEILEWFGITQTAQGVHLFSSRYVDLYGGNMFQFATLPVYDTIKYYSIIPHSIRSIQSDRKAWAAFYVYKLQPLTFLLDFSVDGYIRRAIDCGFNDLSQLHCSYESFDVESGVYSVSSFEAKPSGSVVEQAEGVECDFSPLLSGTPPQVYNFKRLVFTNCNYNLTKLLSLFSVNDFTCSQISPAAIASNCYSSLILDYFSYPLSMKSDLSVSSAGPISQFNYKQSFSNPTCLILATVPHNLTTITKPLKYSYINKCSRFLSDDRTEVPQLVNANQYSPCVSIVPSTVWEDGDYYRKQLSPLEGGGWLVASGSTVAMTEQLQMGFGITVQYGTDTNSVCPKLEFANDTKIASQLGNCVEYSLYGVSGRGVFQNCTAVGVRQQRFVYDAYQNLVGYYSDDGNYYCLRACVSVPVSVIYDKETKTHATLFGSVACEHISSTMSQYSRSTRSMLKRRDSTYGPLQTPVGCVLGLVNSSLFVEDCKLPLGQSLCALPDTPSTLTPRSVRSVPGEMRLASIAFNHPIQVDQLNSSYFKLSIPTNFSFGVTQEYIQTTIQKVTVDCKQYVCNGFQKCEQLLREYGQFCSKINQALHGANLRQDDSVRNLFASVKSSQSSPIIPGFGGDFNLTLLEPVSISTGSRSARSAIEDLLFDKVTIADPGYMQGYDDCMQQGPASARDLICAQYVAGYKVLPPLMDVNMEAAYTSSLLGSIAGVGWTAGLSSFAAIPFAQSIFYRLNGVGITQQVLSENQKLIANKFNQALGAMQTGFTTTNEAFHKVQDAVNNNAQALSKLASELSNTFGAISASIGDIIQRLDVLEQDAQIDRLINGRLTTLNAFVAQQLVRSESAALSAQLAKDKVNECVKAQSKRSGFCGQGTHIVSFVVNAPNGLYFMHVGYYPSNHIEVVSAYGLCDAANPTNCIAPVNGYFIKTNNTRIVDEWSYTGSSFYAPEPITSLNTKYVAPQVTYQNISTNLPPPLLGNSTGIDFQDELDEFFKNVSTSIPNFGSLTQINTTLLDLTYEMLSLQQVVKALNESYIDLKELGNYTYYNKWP

[2] = target: T2, SARS-CoV-2 NTD (1-290) (SARS-CoV-2, UniProt P0DTC2 14-290); assay: BLI, 1:1 model
T2 construct: range 1-290

[3] = target: SARS-CoV-2 S on pseudovirions (Wuhan Hu-1 / IL1/2020, last 18 amino acids removed) (SARS-CoV-2, UniProt P0DTC2 14-1273); assay: cell-based or functional assay
[4] = target: T2, SARS-CoV-2 NTD (1-290); assay: multiplex bead assay

B1: COV_2004 (antibody, V domains shown)
VH: QVQLVQSGAEVKKPGASVKVSCKASGYTFTGYYMHWVRQAPGQGLEWMGRINPSSGGTNYAQKFQGRVTMTRDTSISTAYMELSSLRSDDTAVYYCATDGDDGENWFDPWGQGTLVIVSS
VL: DIQMTQSPSSLSASVGDRVTITCRASQGISSWLAWYQQKPEKAPKSLIYAASSLQSGVPSRFSGSGSGTDFTLTISSLQPEDFATYYCQQYNSYPYTFGQGTKLEIK
notes: human IgG1
binding result [1]: no binding | Kd [2]: < 1 pM

B2: COV_2039 (antibody, V domains shown)
VH: QVQLVQSGAEVKKPGASVKVSCKVSGYMLIELSMHWVRQAPGKGLEWMGGFDPEDAETIYAQEFQGRVTMTEDTSTDTAYMELSSLRSEDTAVYYCTTGPAVTNRPADYWGPGTLVTVSS
VL: QSVLTQPPSVSGAPGQRVTISCTGSSSNIGASYDVHWYQQLPGTAPKLLIYANSNRPSGVPDRFSGSKSGTSASLAITGLQAEDEADYYCQSYDSSLSYSVVFGGGTKLTVL
notes: human IgG1
IC50, pseudotyped neutralization assay [3]: 6 ng/mL | Kd [2]: < 1 pM

B3: COV_2123 (antibody, V domains shown)
VH: EVQLVESGGGVVQPGRSLRLSCAASGFTFSSYAMHWVRQAPGKGLEWVAVLSYDGSNKYNADSVKGRFTISRDNSKNTLYLQMNSLRVEDTAMYYCARDGVSVTMVRGVIGPLCDYWGQGTLVTVSS
VL: not shown
notes: human IgG1
IC50, pseudotyped neutralization assay [3]: 4 ng/mL

B4: COV_2025 (antibody, V domains shown)
VH: QVHLVQSGAEVKKPGASVKVSCKVSGYTLVELSVHWVRQAPAKGLEWIGGFDPEDGETIYAQKFQGRVTMTEDTSTDTAYMELTNLRSEDTAVYYCVTSQPFVSPNWFDPWGQGTLVTVSS
VL: QSALTQPASVSGSPGQSITISCTGTSRDVGAYNYVSWYQQHPGKAPKLMIYEVTTRPSGVSNRFSGSKSGNTASLTISGLQAEDEADYYCSSYTGSRTLVFGTGTKVTVL
notes: human IgG1
IC50, pseudotyped neutralization assay [3]: 9 ng/mL | Kd [2]: < 1 pM

B5: COV_2137 (antibody, V domains shown)
VH: EVQLVESGGGLVKPGGSLRLSCAASGFTFSSYTMNWVRQAPGKGLEWVSSISSGSSFIYYADSLRGRFTISRDNAKNSLYLQMNSLRAEDTAVYYCARAPEPQSVIYAYWYFDLWGRGTLVTVSS
VL: QSALTQPASVSGSPGQSITFSCTGTSSDVGSYNLVSWYQQYPGKAPKLMIYEVNKRPSGVSNRFSGSKSGNTASLTISGLQAEDEADYYCCSYAGSSTFYVFGTGTKVTVLG
notes: human IgG1
binding result [1]: no binding | binding result [4]: binds

B6: COV_2103 (antibody, V domains shown)
VH: EVQLVESGGGVVQPGRSLRLSCGASGFTFSSYGIHWVRQAPGKGLDWVAVIWHDGSQKYYGDSVKGRFTISRDNSKNTLYLQMNRLRAEDTAVYYCARDSGDDYDSSGYPIGNAFDLWGQGTMVTVSS
VL: DIQMTQSPSTLSASVGDRVTITCRASQFINSWLAWYQQKPGKAPKLLIYKASSLETGVPSRFSGSGSGTEFTLTISSLQPDDFATYYCQQYNTYSFTFGPGTKVDIK
notes: human IgG1
Kd [2]: < 1 pM
